Patent publication US8883734B2, “Proteasome-activating anti-aging peptides and compositions containing same” (ISP Investments Inc., priority 2009, dated 2014)
Ends that are not written are not given here.

What was measured:
[1] = molecular target: T1, 20S proteasome (Homo sapiens, UniProt P28072+P28074+Q99436); experiment: Enzymatic activity of 20S proteasome on aged keratinocytes maintained in culture (AMC fluorogenic substrates); type: cell-based; settings: 1% peptide in medium, renewed 3 times per week, 15 days culture
T1 construct: endogenous in cells; host or cells: experimentally aged normal human keratinocytes (NHK); crude cell lysate
Method: Experimentally aged keratinocytes maintained in culture for 15 days are treated with 1% of peptide SEQ ID No. 6. The enzymatic activities of 20S proteasome are then studied. In fact, 20S proteasome is the subunit responsible for enzymatic hydrolysis. Three enzymatic activities may be studied: Trypsin-like, chymotrypsin-like and peptidylglutamyl-peptide hydrolase (PGPH) activity. We are proposing to study these activities by a specific enzymatic assay of each activity.
The aged keratinocytes are maintained in culture for 15 days. The cell treatment is carried out by adding a solution at 1% of peptide SEQ ID No. 6 directly into the medium, renewed 3 times per week for the time of the experiment. The assay of each activity was carried out by using specific substrates labeled by a fluorescent compound 7-amido-4-methylcoumarin (AMC). After cleavage, the AMC excitation wavelength is 350 nm, the fluorescence is read at 440 nm. The fluorescence intensity is proportional to the quantity of fluorochrome obtained and consequently, this quantity is proportional to the quantity of hydrolyzed substrate.
The synthetic peptide Boc-Leu-Arg-Arg-AMC is specific for trypsin activity.
The synthetic peptide Suc-Leu-Leu-Val-Tyr-AMC (SEQ ID NO: 8) is specific for chymotrypsin activity.
The synthetic peptide Z-Leu-Leu-Glu-AMC is specific for peptidylglutamyl-peptide hydrolase activity.
The cells are detached from the support in an extraction buffer. Afterwards, the cells are sonicated for 1 minute at 4° C., and then centrifuged at 15000 g for 30 minutes at 4° C. The protein assay is carried out by the BCA kit (Pierce). After incubation of the cellular lysate with the synthetic substrate specific for the activity studied, fluorescence is read with the Synergy spectrophotometer (BIOTEK, Vermont, USA) at 440 nm.

[2] = test system: beta-galactosidase; settings: 1% peptide, 3 times per week; keratinocytes aged 20 days in culture; X-gal staining
Method: These cells are maintained in culture in a special keratinocyte-SFM medium (Invitrogen) at 37° C. under a humidified atmosphere of 5% CO2. Aged NHK cells are obtained by performing a series of repeated sub-cultures. Briefly the cells are seeded in 75 cm^2 flasks, at low density and cultured from 5 to 10 days between 2 passages. […] The cells are then maintained under these conditions for 45 days.
A study of the antiaging effect of the active principle was carried out by evaluating the expression of the beta-galactosidase protein on experimentally aged keratinocytes in culture.
Keratinocytes experimentally aged in 8-well labteck are cultured and maintained for 20 days in the presence or not of 1% peptide of SEQ ID No. 6. The treatment is carried out 3 times per week by direct addition into the medium.
Untreated cells are maintained in culture for the same experiment time and will be used as controls. On the day of labeling, the cells are rinsed and fixed in a 2% glutaraldehyde-2% formaldehyde mixture for 3 minutes. The cells are then rinsed and 300 μl of 5-bromo-4-chloro-3 indolyl b-D-galactosidase, commonly called X-gal (substrate of beta-galactosidase), is applied. Incubation is carried out for 24 hours in the CO2 incubator, and then the cells are rinsed and the labteck is quickly mounted in a suitable medium. Observation is carried out by transmission microscope. […]

[3] = test system: Ki67 protein; experiment: Ki67 proliferation marker immunolabelling on experimentally aged keratinocytes in culture; type: cell-based, human; settings: 1% peptide in medium; keratinocytes aged 20 days in culture; immunofluorescence
Method: A study of the activator effect of peptide SEQ ID No. 2 was carried out by evaluating the expression of the cellular proliferation marker protein on experimentally aged keratinocytes in culture. The analysis is carried out after 20 days of culture.
The keratinocytes are cultured for 20 days in a CO2 incubator at 37° C. under humidified atmosphere. The cells are treated directly by adding 1% peptide directly into the medium. Cells that are not treated but aged in the same manner are used as control cells. For experimental requirements, the cells are seeded in 8-well labteck, maintained in culture and treated in the same support until the day of labeling. On the day of immunolabelling, the cells are rinsed by using phosphate buffer and then fixed with cold methanol before labeling.
Immunolabelling is carried out by a rabbit anti-Ki67 antibody (Abcam) diluted to 1/1000th and a secondary antibody to 1/1000th coupled with an Alexa fluor monkey anti-rabbit fluorochrome (Molecular probes).
The slides are then mounted in a suitable medium and observed by epifluorescence microscope (Nikon Eclipse E E600).

Substance | trypsin-like activity of 20S proteasome, increase ([1]; substrate Boc-Leu-Arg-Arg-AMC, p=0.033) [%] | chymotrypsin-like activity of 20S proteasome, increase ([1]; substrate Suc-Leu-Leu-Val-Tyr-AMC, p=0.0477) [%] | peptidylglutamyl-peptide hydrolase activity of 20S proteasome, increase ([1]; substrate Z-Leu-Leu-Glu-AMC, p=0.00053) [%] | beta-galactosidase activity in treated cells compared to untreated cells [2] | Ki67 protein expression in aged and treated cells compared to untreated cells [3]
Arg-Lys-Gly-NH2 [SEQ ID No. 6] | 155.3 | 130 | 144.6 | strongly reduced | –
Leu-Arg-Lys-Gly-Met-NH2 (LRKGM-NH2) [SEQ ID No. 2] | – | – | – | – | increased the Ki67 protein
